Test [1] has as its target 28/32 kDa heterodimeric protein on the surface of malignant B-cells. The experiment in a line: whole cell indirect radioimmunoassay on HO-85 and Raji cells.
Test [2] has the same target. The experiment in a line: Scatchard analysis, 125I-labelled antibody on Raji cells.
Test [3] concerns the target T1, human CD3 antigen on the surface of T cells (human, UniProt P07766 23-207).
T1 construct: whole, on cells; also called human CD3 complex
The experiment in a line: Scatchard analysis, 125I-labelled antibody on activated human T cells. On the procedure:
Figure 11A: FIG. 11. (A). Displacement assay to compare the relative affinity of HuM291-Fos and M291 for their antigen. Sub-saturation amounts of murine M291-FITC on human T cells were displaced by increasing amounts of murine M291 or HuM291-Fos. T cells were resuspended in complete media at 2.5 ×10^6/ml. Dilutions of the test (HuM291-Fos) or control (murine M291) antibody were added and incubated at 4° C. for 1 hour. A fixed, subsaturation amount of murine M291-FITC was added, and the cells were incubated at 4° C. for 1 hour, wash d, and resuspended in 1% paraformaldehyde. The cells were then analyzed using flow cytometry. Values expressed in % inhibition of fluorescence intensity compared to no competitive antibody control. (B). Scatchard plot analysis of the binding of ^125I-label d HuM291-Fos to activated human T cells. […] The cells were washed in binding buffer (2% horse serum in PBS containing 0.1% sodium azide) and counted. Nonspecific binding was determined by inhibiting the specific binding with an excess of nonlabeled HuM291-Fos. The apparent K_a and the number of binding sites were calculated from the slope and th X axis intercept, respectively, of the Scatchard plot. […]
The relative affinity of murine M291 and HuM291-Fos F(ab'-zipper)_2 for T cells was evaluated using the displacement assay described above. […]

T1 sequence (P07766 23-207): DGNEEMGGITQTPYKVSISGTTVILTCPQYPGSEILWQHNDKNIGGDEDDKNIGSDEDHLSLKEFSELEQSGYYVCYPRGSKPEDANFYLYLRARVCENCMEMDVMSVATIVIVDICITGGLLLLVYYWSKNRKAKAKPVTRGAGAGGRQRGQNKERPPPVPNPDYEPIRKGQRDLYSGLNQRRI

B1: mouse 1D10 antibody (parent, IgG1/kappa) (antibody, V domains shown)
VH: QVQLKQSGPGLVQPSQSLSITCTGSGFSLTNYGVHWVRQSPGKGLEWLGVKWSGGSTEYNAAFISRLSISKDNSKSQVFFKMNSLQADDTAMYYCARNDRYAMDYWGQGTSVTVSS
VL: DIQMTQSPASLSASVGETVTITCRASENIYSYLAWYQQKQGKSPQLLVSNAKTLAEGVTSRFSGSGSGKQFSLKINSLQPEDFGNYYCQHHYGNSYPFGGGTKLEIK
In turn, B1 displayed a binding activity relative to tissue culture medium alone in test [1] of 5 times.

B2: humanized 1D10-IgG1 (antibody, V domains shown)
VH: QVQLQESGPGLVKPSETLSLTCTVSGFSLTNYGVHWVRQSPGKGLEWIGVKWSGGSTEYNAAFISRLTISKDTSKNQVSLKLNSLTAADTAVYYCARNDRYAMDYWGQGTLVTVSS
VL: DIQMTQSPSSLSASVGDRVTITCRASENIYSYLAWYQQKPGKAPKLLVSNAKTLAEGVPSRFSGSGSGKQFTLTISSLQPEDFATYYCQHHYGNSYPFGQGTKLEIKR
As for B2, in test [2], the Ka stood at 2.3e+08 M⁻¹ and the sites per cell (sites per cell) is 500000.

B3: HuM291-Fos F(ab'-zipper)2 (antibody, V domains shown)
VH: QVQLVQSGAEVKKPGASVKVSCKASGYTFISYTMHWVRQAPGQGLEWMGYINPRSGYTHYNQKLKDKATLTADKSASTAYMELSSLRSEDTAVYYCARSAYYDYDGFAYWGQGTLVTVSS
VL: DIQMTQSPSSLSASVGDRVTITCSASSSVSYMNWYQQKPGKAPKRLIYDTSKLASGVPSRFSGSGSGTDFTLTISSLQPEDFATYYCQQWSSNPPTFGGGTKVEIKR
notes: Bivalent F(ab'-zipper)2 fragment without Fc; The heavy chain is the Fd-Fos (VH 1-120, CH1 121-218, modified hinge 219-238, Fos leucine zipper 239-279); 125I-labelled in the Scatchard analysis; also called humanized F(ab'-zipper)2 of M291
In test [3], B3 had a Ka of around 1.1e+09 M⁻¹.

These data come from patent US7381803 (PROTEIN DESIGN LABS, dated 2008).
